Each block holds one molecule with its values, some of them ahead of it. Starred links: 1 amine or outer side, 2 acyl side, 3 side chain; linkers in the order of their positions; H or OH if unused. Non-standard residues stand in square brackets, D forms with d. *: point of attachment. Cys(ΨMe,MePro) = 2,2-dimethyl-L-thiazolidine-4-carboxylic acid, cis-proline analog, CC1(C)SC[C@@H](C(=O)[*:2])N1[*:1]; F∗ = N-terminal 5(6)-SFX fluorescein label; Tle = CC(C)(C)[C@H](N)C(=O)O; NHPr = CCCN*
Legend:
[1] = biological target: Calcineurin (CN), purified as glutathione S-transferase fusion protein from Escherichia coli BL21 cells (UniProt Q08209); assay: FA competition, competitor FITC-ZIZIT (100 nM), CN 150 nM
[2] = biological target: Calcineurin (CN), purified as glutathione S-transferase fusion protein from Escherichia coli BL21 cells (UniProt Q08209); assay: fluorescence anisotropy, N-terminal 5(6)-SFX labeled peptide (100 nM) titrated with CN
[3] = biological target: Calcineurin (CN), purified as glutathione S-transferase fusion protein from Escherichia coli BL21 cells (UniProt Q08209); assay: fluorescence anisotropy, ratio of KD values against VIVIT
[4] = biological target: Calcineurin (CN), purified as glutathione S-transferase fusion protein from Escherichia coli BL21 cells (UniProt Q08209); assay: in vitro binding to CN, against ZIZIT
[5] = biological target: protein-tyrosine phosphatase SHP1 (UniProt P29350); assay: fluorescence anisotropy, FITC-labeled ZIZIT-cisPro 100 nM
Grb2 SH2 domain = biological target: T1, Grb2 SH2 domain (UniProt P62993 60-152, limits assumed); assay: as above
T1 construct: domain: SH2 domain; also called SH2 domain of Grb2

[6] = biological target: bovine serum albumin (BSA) (bovine, UniProt P02769 25-607); assay: as above
[7] = biological target: Calcineurin (CN), purified as glutathione S-transferase fusion protein from Escherichia coli BL21 cells (UniProt Q08209); assay: fluorescence anisotropy, ratio of KD values against ZIZIT

T1 sequence (P62993 60-152 limits assumed): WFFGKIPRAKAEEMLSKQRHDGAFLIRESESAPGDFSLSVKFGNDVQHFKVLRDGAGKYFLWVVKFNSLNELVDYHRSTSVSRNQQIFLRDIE
Chain of bovine serum albumin (BSA) (P02769 25-607 limits assumed): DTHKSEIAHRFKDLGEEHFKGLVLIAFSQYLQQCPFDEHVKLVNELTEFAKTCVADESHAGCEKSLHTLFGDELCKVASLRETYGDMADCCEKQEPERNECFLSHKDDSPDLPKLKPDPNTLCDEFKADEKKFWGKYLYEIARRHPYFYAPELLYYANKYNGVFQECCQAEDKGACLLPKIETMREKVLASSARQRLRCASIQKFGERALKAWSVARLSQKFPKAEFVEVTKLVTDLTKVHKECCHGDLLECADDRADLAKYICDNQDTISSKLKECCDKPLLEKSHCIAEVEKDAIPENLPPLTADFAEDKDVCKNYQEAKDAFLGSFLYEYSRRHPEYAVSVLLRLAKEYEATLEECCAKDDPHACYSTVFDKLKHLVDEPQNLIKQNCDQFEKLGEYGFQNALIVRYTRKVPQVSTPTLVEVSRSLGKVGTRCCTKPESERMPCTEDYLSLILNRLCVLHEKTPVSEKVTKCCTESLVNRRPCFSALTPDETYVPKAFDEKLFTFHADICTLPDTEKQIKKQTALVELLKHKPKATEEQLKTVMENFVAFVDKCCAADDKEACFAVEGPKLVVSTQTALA

Molecule: unlabeled ZIZIT-cisPro peptide (GPHPZIZITG-Cys(Ψ^Me,MePro)-HEE)
IC50 [1]: 110 nM

Molecule: unlabeled ZIZIT peptide (GPHPZIZITGPHEE, Z = tert-leucine)
IC50 [1]: 280 nM

Molecule: {F∗}-GPHAVAVAAGPHEE-NH2 [F*-…-NH2 (F*-VAVAA), fluorescein-labeled negative control peptide]
Kd [2]: > 20000 nM

Now from value to molecule:

Kd [2]: 43 nM
fold higher affinity than VIVIT [3]: 10 fold
Molecule: Fluorescein-labeled ZIZIT peptide (GPHPZIZITGPHEE, Z = tert-leucine)

fold more active than ZIZIT for binding [4]: 15 fold
Kd [2]: 2.6 nM
Kd [5]: > 15 µM
binding result (Grb2 SH2 domain): no binding (tested: 15 µM)
binding result [6]: no binding (tested: 15 µM)
fold improvement of binding affinity over VIVIT [3]: 200 fold
fold increase of binding affinity over ZIZIT [7]: 20 fold
Molecule: {F∗}-GPHP[Tle]I[Tle]ITG[Cys(ΨMe,MePro)]HEEG-NHPr (also called FITC-labeled ZIZIT-cisPro) [F*-GPHPZIZITG-Cys(Ψ^Me,MePro)-HEEG-Propyl (F*-ZIZIT-cis), fluorescein-labeled ZIZIT-cisPro]
